Source: PMC2475631

Key:
Assay in all cases: EMSA
MyoD;E47 [1] = target: T1, MyoD;E47 (Mus musculus;Mus musculus, UniProt P10085;P15806-2 1-318;1-648, |)
Myogenin;E47 [2] = target: T2, Myogenin;E47 (Rattus norvegicus;Mus musculus, UniProt P20428;P15806-2 1-287;1-648, |)
T2 sequence 1: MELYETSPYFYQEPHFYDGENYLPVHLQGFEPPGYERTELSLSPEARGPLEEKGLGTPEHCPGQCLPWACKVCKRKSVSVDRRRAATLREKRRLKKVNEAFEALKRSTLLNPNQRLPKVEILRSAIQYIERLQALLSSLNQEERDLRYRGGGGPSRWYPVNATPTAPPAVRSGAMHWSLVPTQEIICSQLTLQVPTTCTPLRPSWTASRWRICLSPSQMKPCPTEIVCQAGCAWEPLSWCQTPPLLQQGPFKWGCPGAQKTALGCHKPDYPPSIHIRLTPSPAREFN
T2 sequence 2: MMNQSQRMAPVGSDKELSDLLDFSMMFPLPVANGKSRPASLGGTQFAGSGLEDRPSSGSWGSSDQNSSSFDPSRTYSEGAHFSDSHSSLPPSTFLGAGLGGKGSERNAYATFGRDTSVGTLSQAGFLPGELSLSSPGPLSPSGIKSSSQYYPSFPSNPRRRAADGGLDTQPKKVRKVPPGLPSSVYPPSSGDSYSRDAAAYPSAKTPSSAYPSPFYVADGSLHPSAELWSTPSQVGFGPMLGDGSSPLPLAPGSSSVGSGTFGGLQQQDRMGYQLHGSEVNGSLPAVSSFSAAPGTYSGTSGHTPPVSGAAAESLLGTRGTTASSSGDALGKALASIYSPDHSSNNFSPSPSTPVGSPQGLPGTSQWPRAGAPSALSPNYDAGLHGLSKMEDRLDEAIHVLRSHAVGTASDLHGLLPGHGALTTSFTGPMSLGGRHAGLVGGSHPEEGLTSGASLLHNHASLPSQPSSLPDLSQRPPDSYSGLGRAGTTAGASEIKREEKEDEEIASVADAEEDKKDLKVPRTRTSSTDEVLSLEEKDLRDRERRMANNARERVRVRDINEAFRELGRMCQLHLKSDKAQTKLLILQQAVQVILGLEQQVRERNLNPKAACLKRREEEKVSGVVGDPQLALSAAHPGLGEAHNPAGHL

MRF4;E47 = target: T3, MRF4;E47 (Rattus norvegicus;Mus musculus, UniProt P19335;P15806-2 1-242;1-648, |)
T3 sequence 1: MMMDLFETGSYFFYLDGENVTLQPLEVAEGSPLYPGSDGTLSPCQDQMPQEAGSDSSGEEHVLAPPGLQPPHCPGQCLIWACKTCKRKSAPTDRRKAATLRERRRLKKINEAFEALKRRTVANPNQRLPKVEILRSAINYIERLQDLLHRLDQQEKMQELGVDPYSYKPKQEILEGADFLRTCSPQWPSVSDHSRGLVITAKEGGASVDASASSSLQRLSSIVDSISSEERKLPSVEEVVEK
T3 sequence 2: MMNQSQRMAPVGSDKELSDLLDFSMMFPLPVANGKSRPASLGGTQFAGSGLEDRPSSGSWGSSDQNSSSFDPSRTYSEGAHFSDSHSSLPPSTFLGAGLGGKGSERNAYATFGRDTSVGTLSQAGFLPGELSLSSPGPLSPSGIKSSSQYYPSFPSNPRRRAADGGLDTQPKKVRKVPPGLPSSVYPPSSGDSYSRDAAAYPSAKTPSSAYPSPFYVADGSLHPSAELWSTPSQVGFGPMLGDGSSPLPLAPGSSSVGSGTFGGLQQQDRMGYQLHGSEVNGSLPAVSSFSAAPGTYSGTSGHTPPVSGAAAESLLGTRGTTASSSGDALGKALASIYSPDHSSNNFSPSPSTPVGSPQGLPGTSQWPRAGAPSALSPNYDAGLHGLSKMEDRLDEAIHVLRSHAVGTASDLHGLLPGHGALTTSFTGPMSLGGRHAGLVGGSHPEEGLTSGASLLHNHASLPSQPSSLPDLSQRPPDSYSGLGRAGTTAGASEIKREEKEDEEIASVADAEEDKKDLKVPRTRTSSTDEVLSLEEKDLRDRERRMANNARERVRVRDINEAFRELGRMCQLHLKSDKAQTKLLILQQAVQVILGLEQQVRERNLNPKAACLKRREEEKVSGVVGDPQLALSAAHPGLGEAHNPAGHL

MRF4 = target: T4, MRF4 (Rattus norvegicus, UniProt P19335 1-242)
T4 sequence: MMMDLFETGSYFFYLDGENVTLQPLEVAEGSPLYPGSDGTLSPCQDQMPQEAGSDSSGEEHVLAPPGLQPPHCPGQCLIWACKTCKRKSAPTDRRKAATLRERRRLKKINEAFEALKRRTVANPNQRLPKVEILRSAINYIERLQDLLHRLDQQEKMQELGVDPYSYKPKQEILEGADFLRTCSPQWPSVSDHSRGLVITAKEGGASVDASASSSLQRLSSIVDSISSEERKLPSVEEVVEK

Myogenin = target: T5, Myogenin (Rattus norvegicus, UniProt P20428 1-287)
T5 sequence: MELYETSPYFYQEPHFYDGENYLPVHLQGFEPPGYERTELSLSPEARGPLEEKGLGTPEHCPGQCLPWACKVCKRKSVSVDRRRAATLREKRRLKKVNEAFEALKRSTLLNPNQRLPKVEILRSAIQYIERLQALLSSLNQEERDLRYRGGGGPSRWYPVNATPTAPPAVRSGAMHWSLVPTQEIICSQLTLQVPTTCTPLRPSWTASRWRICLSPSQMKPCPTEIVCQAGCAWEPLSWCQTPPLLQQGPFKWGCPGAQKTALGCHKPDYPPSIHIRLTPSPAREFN

MyoD = MyoD (Mus musculus, UniProt P10085 1-318)
Myogenin/MyoDb chimera = target: T6, Myogenin/MyoDb chimera (Rattus norvegicus; Mus musculus basic …, UniProt P20428 1-73+P10085:102-121+94-287, internal_change)
T6 sequence: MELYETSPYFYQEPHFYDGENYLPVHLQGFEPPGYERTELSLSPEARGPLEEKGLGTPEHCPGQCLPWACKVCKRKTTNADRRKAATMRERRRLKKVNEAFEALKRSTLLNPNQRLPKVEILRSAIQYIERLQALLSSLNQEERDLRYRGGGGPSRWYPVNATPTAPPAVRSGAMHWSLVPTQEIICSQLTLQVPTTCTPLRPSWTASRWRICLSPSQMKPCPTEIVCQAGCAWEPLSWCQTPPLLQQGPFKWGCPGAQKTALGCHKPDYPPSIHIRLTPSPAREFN

MyoD/Myogeninb chimera = MyoD/Myogeninb chimera (Mus musculus; Rattus norvegicus basic …, UniProt P10085 1-101+P20428:74-93+122-318, internal_change)
mut-Myogenin = target: T7, mut-Myogenin (Rattus norvegicus, UniProt P20428 1-287, R84K;K91R)
T7 sequence: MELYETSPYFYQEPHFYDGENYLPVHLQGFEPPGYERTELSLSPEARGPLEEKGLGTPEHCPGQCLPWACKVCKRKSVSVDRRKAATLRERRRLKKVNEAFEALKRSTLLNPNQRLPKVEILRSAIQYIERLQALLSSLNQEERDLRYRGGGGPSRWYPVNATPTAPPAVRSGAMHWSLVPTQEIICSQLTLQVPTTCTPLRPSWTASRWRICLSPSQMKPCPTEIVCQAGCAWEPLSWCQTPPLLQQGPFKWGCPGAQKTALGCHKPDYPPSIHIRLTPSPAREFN

MyoD;E47 [3] = target: T1, MyoD;E47; remark: listed apart in the source
Myogenin;E47 [4] = target: T2, Myogenin;E47; remark: listed apart in the source

B1: E-box DNA (dsDNA)
DNA 1: TCGATCCCCCAACACCTGCTGCCTGA
DNA 2: TCAGGCAGCAGGTGTTGGGGGACGA
For B1, the Kd (MyoD;E47 [1]) was 1.7 ± 0.6 nM, the Kd (Myogenin;E47 [2]) was 0.2 ± 0.1 nM and the Kd (MRF4;E47) was 0.2 ± 0.1 nM. The Kd (MRF4) was 21.3 ± 11 nM, the Kd (Myogenin) was 25.4 ± 11 nM and the Kd (MyoD) was 91.8 ± 1.6 nM.

B2: G'2 integrin DNA (structured_DNA)
DNA: CATGGGGGCGGGAAGGGGCGGGGTCT
B2 was tested, and the Kd (Myogenin/MyoDb chimera) was 7.1 ± 1.9 nM, the Kd (MyoD;E47 [1]) was 11.2 ± 4.3 nM and the Kd (Myogenin;E47 [2]) was 8.5 ± 2 nM. The Kd (MyoD/Myogeninb chimera) was 6 ± 3.1 nM, the Kd (MRF4;E47) was 19.5 ± 2.7 nM and the Kd (MRF4) was 5.3 ± 1.3 nM. For the same binder, the Kd (Myogenin) was 30 ± 8 nM, the Kd (MyoD) was 4.4 ± 2.5 nM and the binding result (mut-Myogenin) was “binds”.

B3: G'2 sMtCK DNA (structured_DNA)
DNA: CTGAGGAGGGGCTGGAGGGACCAC
B3 was tested, and the binding result (MRF4) was “binds”, the binding signal (MyoD;E47 [3]) was 15 fold weaker than E-box and the binding signal (Myogenin;E47 [4]) was 128 fold weaker than E-box.
